{"source": "patent US20030120051A1", "about": "(SUGEN, published 2003)", "binders": {"B1": {"name": "human CASPR/p190 (receptor)", "chain": "WGYYGCDEELVGPLYARSLGASSYYSLLTAPRFARLHGISGWSPRIGDPNPWLQIDLMKKHRIRAVATQGSFNSWDWVTRYMLLYGDRVDSWTPFYQRGHNSTFFGNVNESAVVRHDLHFHFTARYIRIVPLAWNPRGKIGLRLGLYGCPYKADILYFDGDDAISYRFPRGVSRSLWDVFAFSFKTEEKDGLLLHAEGAQGDYVTLELEGAHLLLHMSLGSSPIQPRPGHTTVSAGGVLNDQHWHYVRVDRFGRDVNFTLDGYVQRFILNGDFERLNLDTEMFIGGLVGAARKNLAYRHNFRGCIENVIFNRVNIADLAVRRHSRITFEGKVAFRCLDPVPHPINFGGPHNFVQVPGFPRRGRLAVSFRFRTWDLTGLLLFSRLGDGLGHVELTLSEGQVNVSIAQSGRKKLQFAAGYRLNDGFWHEVNFVAQENHAVISIDDVEGAEVRVSYPLLIRTGTSYFFGGCPKPASRWDCHSNQTAFHGCMELLKVDGQLVNLTLVEGRRLGFYAEVLFDTCGITDRCSPNMCEHDGRCYQSWDDFICYCELTGYKGETCHTPLYKESCEAYRLSGKTSGNFTIDPDGSGPLKPFVVYCDIRENRAWTVVRHDRLWTTRVTGSSMERPFLGAIQYWNASWEEVSALANASQHCEQWIEFSCYNSRLLNTAGGYPYSFWIGRNEEQHFYWGGSQPGIQRCACGLDRSCVDPALYCNCDADQPQWRTDKGLLTFVDHLPVTQVVIGDTNRSTSEAQFFLRPLRCYGDRNSWNTISFHTGAALRFPPIRANHSLDVSFYFRTSAPSGVFLENMGGPYCQWRRPYVRVELNTSRDVVFAFDVGNGDENLTVHSDDFEFNDDEWHLVRAEINVKQARLRVDHRPWVLRPMPLQTYIWMEYDQPLYVGSAELKRRPFVGCLRAMRLNGVTLNLEGRANASEGTSPNCTGHCAHPRLPCFHGGRCVERYSYYTCDCDLTAFDGPYCNHDIGGFFEPGTWMRYNLQSALRSAAREFSHMLSRPVPGYEPGYIPGYDTPGYVPGYHGPGYRLPDYPRPGRPVPGYRGPVYNVTGEEVSFSFSTSSAPAVLLYVSSFVRDYMAVLIKDDGTLQLRYQLGTSPYVYQLTTRPVTDGQPHSINITRVYRNLFIQVDYFPLTEQKFSLLVDSQLDSPKALYLGRVMETGVIDPEIQRYNTPGFSGCLSGVRFNNVAPLKTHFRTPRPMTAELAEALRVQGELSESNCGAMPRLVSEVPPELDPWYLPPDFPYYHDEGWVAILLGFLVAFLLLGLVGMLVLFYLQNHRYKGSYHTNEPKAAHEYHPGSKPPLPTSGPAQVPTPTAAPNQAPASAPAPAPTPAPAPGPRDQNLPQILEESRSE", "notes": "Endogenous in IMR-32 neuroblastoma cells"}}, "key": {"human CASPR/p190": {"biological_target": "B1", "assay": "immunoprecipitation of IMR-32 lysates with CASPR/p190 antibodies, immunoblotting with contactin antibodies"}, "human c-Src [1]": {"biological_target": "T1, human c-Src (human, UniProt P12931 2-536)", "assay": "immunoprecipitation of transfected COS7 lysates with antibodies against c-Src, immunoblotting with anti-fusion antibodies"}, "human c-Src [2]": {"biological_target": "T1, human c-Src", "assay": "immunoprecipitation and immunoblotting of endogenous proteins in IMR-32 cells"}}}
{"binder": "human contactin of IMR-32 neuroblastoma cells (140 kDa protein) (receptor, UniProt Q12860 21-993, looked up, GPI-anchored, whole, on cells; also called p140) EFTWYRRYGHGVSEEDKGFGPIFEEQPINTIYPEESLEGKVSLNCRARASPFPVYKWRMNNGDVDLTSDRYSMVGGNLVINNPDKQKDAGIYYCLASNNYGMVRSTEATLSFGYLDPFPPEERPEVRVKEGKGMVLLCDPPYHFPDDLSYRWLLNEFPVFITMDKRRFVSQTNGNLYIANVEASDKGNYSCFVSSPSITKSVFSKFIPLIPIPERTTKPYPADIVVQFKDVYALMGQNVTLECFALGNPVPDIRWRKVLEPMPSTAEISTSGAVLKIFNIQLEDEGIYECEAENIRGKDKHQARIYVQAFPEWVEHINDTEVDIGSDLYWPCVATGKPIPTIRWLKNGYAYHKGELRLYDVTFENAGMYQCIAENTYGAIYANAELKILALAPTFEMNPMKKKILAAKGGRVIIECKPKAAPKPKFSWSKGTEWLVNSSRILIWEDGSLEINNITRNDGGIYTCFAENNRGKANSTGTLVITDPTRIILAPINADITVGENATMQCAASFDPALDLTFVWSFNGYVIDFNKENIHYQRNFMLDSNGELLIRNAQLKHAGRYTCTAQTIVDNSSASADLVVRGPPGPPGGLRIEDIRATSVALTWSRGSDNHSPISKYTIQTKTILSDDWKDAKTDPPIIEGNMEAARAVDLIPWMEYEFRVVATNTLGRGEPSIPSNRIKTDGAAPNVAPSDVGGGGGRNRELTITWAPLSREYHYGNNFGYIVAFKPFDGEEWKKVTVTNPDTGRYVHKDETMSPSTAFQVKVKAFNNKGDGPYSLVAVINSAQDAPSEAPTEVGVKVLSSSEISVHWEHVLEKIVESYQIRYWAAHDKEEAANRVQVTSQEYSARLENLLPDTQYFIEVGACNSAGCGPPSDMIEAFTKKAPPSQPPRIISSVRSGSRYIITWDHVVALSNESTVTGYKVLYRPDGQHDGKLYSTHKHSIEVPIPRDGEYVVEVRAHSDGGDGVVSQVKIS", "values": [{"measurement": "binding result", "setting": "human CASPR/p190", "value": "binds"}]}
{"binder": "HA-tagged rat CASPR/p190 (pCM190HA) (receptor, not shown: small tags and cut ends, Expressed in COS7 cells; also called tagged CASPR/p190; CASPR/p190 fusion proteins) WGYYGCNEELVGPLYARSLGASSYYGLFTTARFARLHGISGWSPRIGDPNPWLQIDLMKKHRIRAVATQGAFNSWDWVTRYMLLYGDRVDSWTPFYQQGHNATFFGNVNDSAVVRHDLHYHFTARYIRIVPLAWNPRGKIGLRLGIYGCPYTSNILYFDGDDAISYRFQRGASQSLWDVFAFSFKTEEKDGLLLHTEGSQGDYVTLELQGAHLLLHMSLGSSPIQPRPGHTTVSAGGVLNDLSWHYVRVDRYGREANLTLDGYVHRFVLNGDFERLNLENEIFIGGLVGAARKNLAYRHNFRGCIENVIYNRINIAEMAVQRHSRITFEGNVAFRCLDPVPHPINFGGPHNFVQVPGFPRRGRLAVSFRFRTWDLTGLLLFSRLGDGLGHVELMLSEGQVNVSIAQTGRKKLQFAAGYRLNDGFWHEVNFVAQENHAVISIDDVEGAEVRVSYPLLIRTGTSYFFGGCPKPASRWGCHSNQTAFHGCMELLKVDGQLVNLTLVEFRKLGYFAEVLFDTCGITDRCSPNMCEHDGRCYQSWDDFICYCELTGYKGVTCHEPLYKESCEAYRLSGKYSGNYTIDPDGSGPLKPFVVYCDIRENRAWTVVRHDRLWTTRVTGSSMDRPFLGAIQYWNASWEEVSALANASQHCEQWIEFSCYNSRLLNTAGGYPYSFWIGRNEEQHFYWGGSQPGIQRCACGLDQSCIDPALHCNCDADQPQWRTDKGLLTFVDHLPVTQVVIGDTNRSSSEAQFFLRPLRCYGDRNSWNTISFRTGAALRFPPIRANHSLDVSFYFRTSAPSGVFLENMGGPFCQWRRPYVRVELNTSRDVVFAFDIGNGDENLTVHSDDFEFNDDEWHLVRAEINVKQARLRVDHRPWVLRPMPLQTYIWLEYDQPLYVGSAELKRRPFVGCLRAMRLNGVTLNLEGRANASEGTFPNCTGHCTHPRFPCFHGGRCVERYSYYTCDCDLTAFDGPYCNHDIGGFFETGTWMRYNLQSALRSAAQEFSHMLSRPVPGYEPGYIPGYDTPGYVPGYHGPGYRLPDYPRPGRPVPGYRGPVYNVTGEEVSFSFSTSSAPAVLLYVSSFVRDYMAVLIKEDGTLQLRYQLGTSPYVYQLTTRPVTDGQPHSVNITRVYRNLFIQVDYFPLTEQKFSLLVDSQLDSPKALYLGRVMETGVIDPEIQRYNTPGFSGCLSGVRFNNVAPLKTHFRTPRPMTAELAEAMRVQGELSESNCGAMPRLVSEVPPELDPWYLPPDFPYYHDDGWIAILLGFLVAFLLLGLVGMLVLFYLQNHRYKGSYHTNEPKATHDSHPGGKAPLPPSGPAQAPAPTPAPTQVPTPAPAPASGPGPRDQNLPQILEESRSE", "values": [{"measurement": "binding result", "setting": "human c-Src [1]", "value": "binds"}]}
{"binder": "B1", "values": [{"measurement": "binding result", "setting": "human c-Src [2]", "value": "no binding"}]}
